From publication PMC3005221

Assays:
[1] = biological target: GST (Schistosoma japonicum) [GST: P08515]; conditions: cited from earlier work
[2] = biological target: FITC-β-Ala-β-Ala-LQDGF; experiment: fluorescence polarisation
[3] = biological target: FITC-β-Ala-β-Ala-RGMGG (human); experiment: fluorescence polarisation
[4] = biological target: FITC-β-Ala-β-Ala-ALRGG (human); experiment: fluorescence polarisation
[5] = biological target: FITC-β-Ala-β-Ala-STLGG (human); experiment: fluorescence polarisation
[6] = biological target: FITC-β-Ala-β-Ala-FDGFM; experiment: fluorescence polarisation
[7] = biological target: FITC-β-Ala-β-Ala-YGFGG (human); experiment: fluorescence polarisation
[8] = biological target: FITC-β-Ala-β-Ala-NALGG; experiment: fluorescence polarisation
[9] = biological target: FITC-β-Ala-β-Ala-RLRGG (human); experiment: fluorescence polarisation
[10] = biological target: FITC-β-Ala-β-Ala-IAKGG; experiment: fluorescence polarisation
[11] = biological target: FITC-β-Ala-β-Ala-RARGG (human); experiment: fluorescence polarisation
[12] = biological target: ubiquitin (Homo sapiens) (UniProt P0CG48); conditions: cited from earlier work
[13] = biological target: ubiquitin C-terminal five-residue peptide (Homo sapiens); conditions: cited from earlier work

Sequence of HDAC6 BUZ (Q9UBN7 1111-1209): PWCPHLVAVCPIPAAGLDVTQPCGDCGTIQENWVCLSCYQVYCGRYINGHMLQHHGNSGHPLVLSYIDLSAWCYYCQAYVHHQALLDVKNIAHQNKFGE
Sequence of Ubp-M BUZ (Q9Y5T5 22-142): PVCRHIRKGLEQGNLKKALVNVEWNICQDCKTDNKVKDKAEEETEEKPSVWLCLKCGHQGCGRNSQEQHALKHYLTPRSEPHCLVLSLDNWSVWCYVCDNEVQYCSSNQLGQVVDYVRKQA

GST (from UniProt P08515)
Kd [1]: 0.33 µM

GST-Abl2 SH2 domain fusion protein (from UniProt P42684 173-263) (domain or fragment)
Kd [2]: 4.6 µM

GST-HDAC6 BUZ (from UniProt Q9UBN7 1059-1215) (domain or fragment)
Kd [3]: 1.3 µM
Kd [4]: 2.5 µM
Kd [5]: 3.7 µM
Kd [2]: 4 µM
Kd [6]: 10.8 µM
Kd [7]: 6.2 µM
Kd [8]: 0.79 µM
Kd [9]: 0.34 µM
Kd [10]: 8.8 µM
Kd [11]: 0.47 µM

HDAC6 BUZ (from UniProt Q9UBN7)
Kd [12]: 0.06 µM

Ubp-M BUZ (from UniProt Q9Y5T5)
Kd [13]: 15.9 µM
